Data on seven sequences can be found in the supplement of paper PMC11246515.

The series can be described thus: total protein half-life in vivo (active degradation + dilution); higher = more stable protein.
Where [1] appears, read: E. coli NCM3722 delta-clpP delta-lon delta-hslV, growth: N-lim chemostat, doubling time 6 h.
[2] abbreviates: E. coli NCM3722 delta-clpP, growth: N-lim chemostat, doubling time 6 h.
Setting [3] is: E. coli NCM3722 delta-hslV, growth: N-lim chemostat, doubling time 6 h.
The mark [4] stands for this setting: E. coli NCM3722 delta-lon, growth: N-lim chemostat, doubling time 6 h.
The mark [5] stands for this setting: E. coli NCM3722 delta-smpB, growth: N-lim chemostat, doubling time 6 h.
Where [6] appears, read: wild type E. coli NCM3722, growth: C-lim chemostat, doubling time 3 h.
The mark [7] stands for this setting: wild type E. coli NCM3722, growth: C-lim chemostat, doubling time 6 h.
The mark [8] stands for this setting: wild type E. coli NCM3722, growth: C-lim chemostat, doubling time 12 h.
The mark [9] stands for this setting: wild type E. coli NCM3722, growth: N-lim chemostat, doubling time 6 h.
[10] abbreviates: wild type E. coli NCM3722, growth: N-lim chemostat, doubling time 12 h.
Where [11] appears, read: wild type E. coli NCM3722, growth: P-lim chemostat, doubling time 6 h.
Where [12] appears, read: wild type E. coli NCM3722, growth: P-lim chemostat, doubling time 12 h.

± gives the standard deviation of the averaged measurements.

In the case of “MKYKLLPCLLAIFLTGCDRTEVTLSFTPEMASFSNEFDFDPLRGPVKDFTQTLMDEQGEVTKRVSGTLSEEGCFDSLELLDLENNTVVALVLDANYYRDAETLEKRVRLQGKCQLAELPSAGVSWETDDNGFVIKASSKQMQMEYRYDDQGYPLGKTTKSNDKTLSVSATPSTDPIKKLDYTAVTLLNNQRVGNVKQSCEYDSHANPVDCQLIIVDEGVKPAVERVYTIKNTIDYY”, the “total protein half-life in vivo” value under setting [1] turned out to be 2.15 ± 0.28 h; the “total protein half-life in vivo” value under setting [2] was 2 ± 0.022 h; the “total protein half-life in vivo” value under setting [3] amounted to 2.16 ± 0.13 h; the “total protein half-life in vivo” value under setting [4] is 1.87 h; the “total protein half-life in vivo” value under setting [5] was found to be 1.81 ± 0.19 h; the “total protein half-life in vivo” value under setting [6] was 1.64 ± 0.1 h. For the same sequence, the “total protein half-life in vivo” value runs as follows: under setting [7], 2.38 ± 0.077 h; under setting [8], 2.85 ± 0.52 h; under setting [9], 2.24 ± 0.56 h; under setting [10], 2.51 ± 0.27 h; under setting [11], 2.13 ± 0.32 h; under setting [12], 3.98 ± 0.97 h.

Take “MKKLINDVQDVLDEQLAGLAKAHPSLTLHQDPVYVTRADAPVAGKVALLSGGGSGHEPMHCGYIGQGMLSGACPGEIFTSPTPDKIFECAMQVDGGEGVLLIIKNYTGDILNFETATELLHDSGVKVTTVVIDDDVAVKDSLYTAGRRGVANTVLIEKLVGAAAERGDSLDACAELGRKLNNQGHSIGIALGACTVPAAGKPSFTLADNEMEFGVGIHGEPGIDRRPFSSLDQTVDEMFDTLLVNGSYHRTLRFWDYQQGSWQEEQQTKQPLQSGDRVIALVNNLGATPLSELYGVYNRLTTRCQQAGLTIERNLIGAYCTSLDMTGFSITLLKVDDETLALWDAPVHTPALNWGK”: the “total protein half-life in vivo” value is 5.88 ± 0.29 h under setting [1]; 5.22 ± 0.51 h under setting [2]; 5.21 ± 0.23 h under setting [3]; 5.33 ± 0.57 h under setting [5]; 2.78 ± 0.28 h under setting [6]; 5.7 ± 0.2 h under setting [7]. For the same sequence, the “total protein half-life in vivo” value under setting [8] was 10.4 ± 0.73 h; the “total protein half-life in vivo” value under setting [9] worked out at 5.72 ± 0.15 h; the “total protein half-life in vivo” value under setting [10] stood at 10.3 ± 1.2 h; the “total protein half-life in vivo” value under setting [11] was found to be 5.75 ± 0.93 h; the “total protein half-life in vivo” value under setting [12] worked out at 12.5 ± 0.43 h.

Take “MNSNKELMQRRSQAIPRGVGQIHPIFADRAENCRVWDVEGREYLDFAGGIAVLNTGHLHPKVVAAVEAQLKKLSHTCFQVLAYEPYLELCEIMNQKVPGDFAKKTLLVTTGSEAVENAVKIARAATKRSGTIAFSGAYHGRTHYTLALTGKVNPYSAGMGLMPGHVYRALYPCPLHGISEDDAIASIHRIFKNDAAPEDIAAIVIEPVQGEGGFYASSPAFMQRLRALCDEHGIMLIADEVQSGAGRTGTLFAMEQMGVAPDLTTFAKSIAGGFPLAGVTGRAEVMDAVAPGGLGGTYAGNPIACVAALEVLKVFEQENLLQKANDLGQKLKDGLLAIAEKHPEIGDVRGLGAMIAIELFEDGDHNKPDAKLTAEIVARARDKGLILLSCGPYYNVLRILVPLTIEDAQIRQGLEIISQCFDEAKQ”: the “total protein half-life in vivo” value came out at 3.78 ± 0.21 h under setting [1]; 2.96 ± 0.38 h under setting [2]; 2.98 ± 0.17 h under setting [3]; 3.23 ± 0.15 h under setting [4]; 2.83 ± 0.11 h under setting [5]; 2.993 ± 0.012 h under setting [6]. The “total protein half-life in vivo” value reads like this: under setting [7], 4.86 ± 0.26 h; under setting [8], 9.33 ± 1.2 h; under setting [9], 3.04 ± 0.32 h; under setting [10], 4.1 ± 0.17 h; under setting [11], 5.414 ± 0.018 h; under setting [12], 9.92 ± 0.68 h.

On to “MPSTRYQKINAHHYRHIWVVGDIHGEYQLLQSRLHQLSFFPKIDLLISVGDNIDRGPESLDVLRLLNQPWFTSVKGNHEAMALEAFETGDGNMWLASGGDWFFDLNDSEQQEAIDLLLKFHHLPHIIEITNDNIKYAIAHADYPGSEYLFGKEIAESELLWPVDRVQKSLNGELQQINGADYFIFGHMMFDNIQTFANQIYIDTGSPNSGRLSFYKIK”, for which the “total protein half-life in vivo” value is, setting by setting: under setting [8], above 16 h; under setting [9], 4.06 h; under setting [12], above 16 h.

Consider “MLMITSFANPRVAQAFVDYMATQGVILTIQQHNQSDVWLADESQAERVRAELARFLENPADPRYLAASWQAGHTGSGLHYRRYPFFAALRERAGPVTWVMMIACVVVFIAMQILGDQEVMLWLAWPFDPTLKFEFWRYFTHALMHFSLMHILFNLLWWWYLGGAVEKRLGSGKLIVITLISALLSGYVQQKFSGPWFGGLSGVVYALMGYVWLRGERDPQSGIYLQRGLIIFALIWIVAGWFDLFGMSMANGAHIAGLAVGLAMAFVDSLNARKRK”, for which the “total protein half-life in vivo” value under setting [1] was 5.94 ± 0.09 h; the “total protein half-life in vivo” value under setting [2] came out at 7.254 ± 0.027 h; the “total protein half-life in vivo” value under setting [5] was found to be 4.85 h; the “total protein half-life in vivo” value under setting [7] worked out at 5.67 h; the “total protein half-life in vivo” value under setting [8] worked out at 7.94 h; the “total protein half-life in vivo” value under setting [10] amounted to 11.7 h. Further, the “total protein half-life in vivo” value reads like this: under setting [11], 5.84 h; under setting [12], 11.6 ± 1.8 h.

Regarding “MEWLVKKSCCNKQDNRHVLMLCDAGGAIKMIAEVKSDFAVKVGDLLSPLQNALYCINREKLHTVKVLSASSYSPDEWERQCKVAGKTQ”, the “total protein half-life in vivo” value by setting is: under setting [1], 5.09 ± 0.77 h; under setting [3], 3.24 h; under setting [4], 3.35 h; under setting [5], 4.9 h; under setting [6], 2.04 ± 0.53 h; under setting [7], 4.32 h. Further, the “total protein half-life in vivo” value stood at 7.64 ± 1.4 h under setting [8], 4.88 h under setting [10], 4.39 h under setting [11] and 7.16 ± 1.1 h under setting [12].

As for “MPSARLQQQFIRLWQCCEGKSQDTTLNELAALLSCSRRHMRTLLNTMQDRGWLTWEAEVGRGKRSRLTFLYTGLALQQQRAEDLLEQDRIDQLVQLVGDKATVRQMLVSHLGRSFRQGRHILRVLYYRPLRNLLPGSALRRSETHIARQIFSSLTRINEENGELEADIAHHWQQISPLHWRFFLRPGVHFHHGRELEMDDVIASLKRINTLPLYSHIADIVSPTPWTLDIHLTQPDRWLPLLLGQVPAMILPREWETLSNFASHPIGTGPYAVIRNSTNQLKIQAFDDFFGYRALIDEVNVWVLPEIADEPAGGLMLKGPQGEEKEIESRLEEGCYYLLFDSRTHRGANQQVRDWVSYVLSPTNLVYFAEEQYQQLWFPAYGLLPRWHHARTIKSEKPAGLESLTLTFYQDHSEHRVIAGIMQQILASHQVTLKIKEIDYDQWHTGEIESDIWLNSANFTLPLDFSVFAHLCEVPLLQHCIPIDWQADAARWRNGEMNLANWCQQLVASKAMVPLLHHWLIIQGQRSMRGLRMNTLGWFDFKSAWFAPPDP”, the “total protein half-life in vivo” value by setting is: under setting [1], 6.14 ± 0.11 h; under setting [2], 6.77 ± 0.29 h; under setting [4], 5.83 ± 0.34 h; under setting [5], 5.32 ± 0.33 h; under setting [7], 5.64 ± 0.28 h; under setting [8], 11.9 ± 2.8 h. Further, the “total protein half-life in vivo” value reads like this: under setting [9], 5.67 ± 0.6 h; under setting [10], 13.4 ± 0.32 h; under setting [11], 5.35 ± 0.34 h; under setting [12], 9.889 ± 0.087 h.
